Laboratory results as given in US20220281976A1 (Alector, published 2022).

T1: mouse CD33 Fc fusion protein (mouse, UniProt Q63994 18-240, limits assumed)
T1 construct: also called mCD33-Fc
T1 sequence: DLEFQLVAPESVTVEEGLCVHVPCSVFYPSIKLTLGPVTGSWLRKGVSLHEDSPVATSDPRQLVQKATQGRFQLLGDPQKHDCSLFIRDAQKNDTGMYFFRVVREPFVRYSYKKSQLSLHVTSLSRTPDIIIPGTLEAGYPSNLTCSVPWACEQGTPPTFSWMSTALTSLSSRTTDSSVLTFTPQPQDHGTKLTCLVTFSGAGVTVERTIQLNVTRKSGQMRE


Key:
[1] = target: T2, human CD33 Fc fusion protein (human, UniProt P20138 18-259); test: ForteBio BLI or MSD-SET
T2 construct: also called hCD33-Fc; human CD33/Fc chimera (R&D Systems)

[2] = target: T3, human monomeric His tagged CD33 protein (human, UniProt P20138 18-259); test: ForteBio BLI or MSD-SET
T3 construct: also called hCD33-His

[3] = target: T1, mouse CD33 Fc fusion protein; test: ForteBio BLI or MSD-SET, IgG, avid;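 note: Anti-CD33 IgG affinity by BLI, IgG captured on AHQ sensors with antigen in solution and a one-to-one kinetic fit, or by MSD solution equilibrium titration with quadratic fit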
[4] = target: T2, human CD33 Fc fusion protein; test: RBC adhesion to plate-bound CD33-Fc; antibody 0.5 ug/ml;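 note: Plate-coated CD33-Fc preincubated 1 h with antibody, then red blood cells added for 1 h at room temperature, adherent cells lysed and quantified via peroxidase activity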
[5] = target: T2, human CD33 Fc fusion protein; test: RBC adhesion to plate-bound CD33-Fc; antibody 1.0 ug/ml;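 note: red blood cells adhering to plate-coated CD33-Fc after 1 h antibody pretreatment, then 1 h at room temperature, bound cells read as peroxidase activity after lysis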
Description: Briefly, 5 ug/ml CD33-Fc was coated overnight at RT in 96 well Immunolon plates, then washed with PBS, blocked for one hour with binding buffer (PBS containing %0.25 BSA 1 mM CaCl₂). CD33 antibodies (0.5 ug/ml or 1.0 ug/ml) or Fabs (25 ug/ml) were bound for one hour at RT with gentle rocking. After removal of unbound antibody, red blood cells were added to each well at a concentration of 3.0×10⁶ cells per ml and incubated at RT for one hour. Unbound RBCs were then carefully washed off 3× with PBS, and water was added to each well for hypotonic lysis of bound RBCs. The plate was transferred to −80° C. for 10 minutes, followed by 37° C. for 15 minutes. Bound RBCs were detected by peroxidase activity, followed by 2N sulfuric acid to stop the reaction.

[6] = target: T4, human CD33 (human, UniProt P20138 18-364); test: cell-based or functional assay
[7] = target: T1, mouse CD33 Fc fusion protein; test: ForteBio BLI or MSD-SET
[8] = target: T2, human CD33 Fc fusion protein; test: ForteBio BLI or MSD-SET, IgG, avid;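 note: Anti-CD33 IgG affinity by BLI, IgG captured on AHQ sensors with antigen in solution and a one-to-one kinetic fit, or by MSD solution equilibrium titration with quadratic fit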
[9] = target: T4, human CD33; test: flow cytometry, human primary T cells;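 note: binding of anti-CD33 antibodies at 10 ug/ml to human primary T cells, 1 h on ice, detected with PE-labelled secondary antibody, read as flow cytometry MFI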
Description: (§1) Initial characterization of CD33 antibodies involved determining their ability to bind CD33 expressed on a CHO cell line, on human primary monocytes, human primary macrophages, human primary dendritic cells, and on human primary T cells. Cells were harvested, plated at 10⁶/ml in a 96 well plate, and incubated in 100 ul PBS containing 2% FBS, 2 mM EDTA and 10 ug/ml Mab and Fc blocking reagent for 1 hour in ice. Cells were washed twice and incubated in 100 ul PBS containing 2% FBS, 2 mM EDTA and 5 ug/ml PE-conjugated secondary antibody for 30 minutes on ice. Cells were washed twice in cold PBS and analyze by flow cytometry on a BD FACS Canto. Data analysis and calculation of MFI values was performed with FlowJo (TreeStar) software version 10.0.7.

[10] = target: T4, human CD33; test: flow cytometry, human primary monocytes; set-up: reference not given here;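 note: binding of anti-CD33 antibodies at 10 ug/ml to human primary monocytes, 1 h on ice, detected by PE-labelled secondary antibody, flow cytometry readout as mean fluorescence intensity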
[11] = target: T4, human CD33; test: flow cytometry, human primary macrophages;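 note: binding of CD33 antibodies at 10 µg/ml to human primary macrophages, 1 h on ice, detected with PE-labelled secondary antibody by flow cytometry, reported as MFI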
Description: as §1

[12] = target: T4, human CD33; test: flow cytometry, human primary dendritic cells;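 note: binding of anti-CD33 antibodies (10 ug/ml, 1 h on ice) to human primary dendritic cells, detected with a PE-labelled secondary antibody, reported as flow cytometry MFI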
Description: as §1

[13] = target: T3, human monomeric His tagged CD33 protein; test: ForteBio BLI or MSD-SET, IgG, monomeric antigen;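 note: BLI: antibodies captured on AHQ sensors, 100 nM antigen association 5 min, dissociation 5 min, 1:1 fit. MSD-SET: antigen fixed at 50 pM, antibody titrated, quadratic fit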

T3 sequence (P20138 18-259 limits assumed): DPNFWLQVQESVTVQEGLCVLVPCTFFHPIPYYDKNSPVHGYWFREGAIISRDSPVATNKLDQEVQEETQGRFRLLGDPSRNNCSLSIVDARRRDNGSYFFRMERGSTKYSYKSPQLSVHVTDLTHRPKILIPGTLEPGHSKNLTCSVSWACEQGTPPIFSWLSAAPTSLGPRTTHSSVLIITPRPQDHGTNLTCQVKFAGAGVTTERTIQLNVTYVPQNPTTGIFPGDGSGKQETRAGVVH
T2 sequence (P20138 18-259 limits assumed): as above
T4 sequence (P20138 18-364): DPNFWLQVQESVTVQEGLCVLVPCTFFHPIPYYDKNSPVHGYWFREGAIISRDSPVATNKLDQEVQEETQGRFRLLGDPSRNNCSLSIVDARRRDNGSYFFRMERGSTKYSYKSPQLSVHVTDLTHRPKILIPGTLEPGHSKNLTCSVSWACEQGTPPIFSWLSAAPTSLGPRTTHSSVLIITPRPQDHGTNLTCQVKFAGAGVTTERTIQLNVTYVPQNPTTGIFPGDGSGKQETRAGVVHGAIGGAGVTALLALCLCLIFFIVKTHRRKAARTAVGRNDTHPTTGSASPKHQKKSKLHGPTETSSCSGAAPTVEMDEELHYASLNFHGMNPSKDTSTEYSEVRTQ

| Binder | binding result [1] | binding result [2] | Kd [3] [nM] | Percent RBC Binding to CD33 [4] [%] | Percent RBC Binding to CD33 [5] [%] | Percent CD33 Surface Expression, DC % CD33 [6] [%] | Percent CD33 Surface Expression, Macrophage % CD33 [6] [%] | Percent CD33 Surface Expression, Monocyte % CD33 [6] [%] | binding result [7] | Kd [8] [nM] | T cell MFI [9] | Monocyte MFI [10] | Macrophage MFI [11] | DC MFI [12] | Kd [13] [nM] |
| --- | --- | --- | --- | --- | --- | --- | --- | --- | --- | --- | --- | --- | --- | --- | --- |
| C-47 (antibody, V domains shown, human IgG1) VH: QVQLVESGGGVVQPGRSLRLSCAASGFTFSSYGMHWVRQAPGKGLEWVAVISYDGSNKYYADSVKGRFTISRDNSKNTLYLQMNSLRAEDTAVYYCARGPYYSYTDTAWFDPWGQGTLVTVSS VL: not shown | no binding (tested: 100 nM) | no binding (tested: 100 nM) | 1.09 | 112 | 142 | – | – | – | – | – | – | – | – | – | – |
| C-30 (antibody, V domains shown) VH: QVQLVQSGAEVKKPGASVKVSCKASGYTFTSYYMHWVRQAPGQGLEWMGVINPSGGSTSYAQKFQGRVTMTRDTSTSTVYMELSSLRSEDTAVYYCAREEAVAADLGVDVWGQGTTVTVSS VL: not shown | – | – | – | 14.2 | 8.9 | 21 | 41.3 | 43 | no binding (tested: 100 nM) | 0.985 | 240 | 169 | 1060 | 1660 | 4.12 |
| C-50 (antibody, V domains shown, human IgG1) VH: not shown VL: DIQMTQSPSSVSASVGDRVTITCRASQGISSWLAWYQQKPGKAPKLLIYAASSLQSGVPSRFSGSGSGTDFTLTISSLQPEDFATYYCQQAFDFPITFGGGTKVEIK | no binding (tested: 100 nM) | no binding (tested: 100 nM) | 0.445 | 118 | 95.3 | 87 | – | 85.3 | – | – | 112 | 54 | 496 | 307 | – |
| C-64 (antibody, V domains shown, human IgG1) VH: QVQLVQSGAEVKKPGSSVKVSCKASGGTFSSLAISWVRQAPGQGLEWMGGIIPIFGTANYAQKFQGRVTITADESTSTAYMELSSLRSEDTAVYYCARGTFYSDELFDYWGQGTLVTVSS VL: DIQMTQSPSSVSASVGDRVTITCRASQGISSWLAWYQQKPGKAPKLLIYAASSLQSGVPSRFSGSGSGTDFTLTISSLQPEDFATYYCQQENSYPLTFGGGTKVEIK | – | – | 25.8 | 93.5 | 90.4 | 31 | 40.5 | 29.5 | – | – | 188 | 188 | 1040 | 1300 | 7.1 |
| C-34 (antibody, V domains shown, human IgG1) VH: EVQLVESGGGLVQPGGSLRLSCAASGFTFSSYWMSWVRQAPGKGLEWVANINQDGSEKYYVDSVKGRFTISRDNAKNSLYLQMNSLRAEDTAVYYCARDHGATGPDFDLWGRGTLVTVSS VL: DIQMTQSPSSLSASVGDRVTITCRASQSISSYLNWYQQKPGKAPKLLIYGASSLQSGVPSRFSGSGSGTDFTLTISSLQPEDFATYYCQQQYLTPLTFGGGTKVEIK | – | – | – | 14.4 | 9.86 | 20.1 | 38 | 42.5 | no binding (tested: 100 nM) | 1.21 | 216 | 157 | 862 | 1440 | 4.44 |
| C-51 (antibody, V domains shown, human IgG1) VH: QLQLQESGPGLVKPSETLSLTCTVSGGSISSSSYYWGWIRQPPGKGLEWIGSIYYSGSTYYNPSLKSRVTISVDTSKNQFSLKLSSVTAADTAVYYCARGAPHDYGGGVGWFDPWGQGTTVTVSS VL: DIQMTQSPSSVSASVGDRVTITCRASQGISSWLAWYQQKPGKAPKLLIYAASNLQSGVPSRFSGSGSGTDFTLTISSLQPEDFATYYCQQSRVFPWTFGGGTKVEIK | no binding (tested: 100 nM) | no binding (tested: 100 nM) | 2.72 | 96.6 | 129 | – | – | – | – | – | – | – | – | – | – |
| C-33 (antibody, V domains shown, human IgG1) VH: EVQLVESGGGLVQPGGSLRLSCAASGFTFSSYWMSWVRQAPGKGLEWVANIKSDGSEKYYVDSVKGRFTISRDNAKNSLYLQMNSLRAEDTAVYYCAREGRPRLGYAAFDIWGQGTMVTVSS VL: DIQMTQSPSSLSASVGDRVTITCRASQSISSYLNWYQQKPGKAPKLLIYAASSLQSGVPSRFSGSGSGTDFTLTISSLQPEDFATYYCQQQYDLPITFGGGTKVEIK | – | – | – | 9.36 | 6.32 | 18.4 | 43.1 | 51.4 | no binding (tested: 100 nM) | 0.954 | 228 | 133 | 753 | 1590 | 3.91 |
| C-32 (antibody, V domains shown, human IgG1) VH: EVQLVESGGGLVQPGGSLRLSCAASGFTFSSYWMSWVRQAPGKGLEWVANIKSDGSEKYYVDSVKGRFTISRDNAKNSLYLQMNSLRAEDTAVYYCARGPSEAAAAKDFDLWGRGTLVTVSS VL: not shown | – | – | – | 12.5 | 7.86 | 17.3 | 43.2 | 33.5 | no binding (tested: 100 nM) | 1.63 | 248 | 133 | 855 | 1460 | 7.82 |
